From publication PMC9477748, “Organizing structural principles of the IL-17 ligand–receptor axis” (Nature, 2022)
Numbering of substitutions follows the chain as printed. In names and notes the source's numbering stands.

Columns and labels:
[1] = biological target: site-specifically biotinylated IL-17RB, immobilized (human) (UniProt Q9NRM6); assay: SPR; Biacore T100; about 300 RU of site-specifically biotinylated IL-17RB immobilized on a Series S Sensor Chip SA; regeneration 2 M MgCl2; steady-state affinity analysis
[2] = biological target: T1, IL-17RB (18-502) fused to the ALFA-tag, on HeLa cells (human) (UniProt Q9NRM6)
T1 sequence: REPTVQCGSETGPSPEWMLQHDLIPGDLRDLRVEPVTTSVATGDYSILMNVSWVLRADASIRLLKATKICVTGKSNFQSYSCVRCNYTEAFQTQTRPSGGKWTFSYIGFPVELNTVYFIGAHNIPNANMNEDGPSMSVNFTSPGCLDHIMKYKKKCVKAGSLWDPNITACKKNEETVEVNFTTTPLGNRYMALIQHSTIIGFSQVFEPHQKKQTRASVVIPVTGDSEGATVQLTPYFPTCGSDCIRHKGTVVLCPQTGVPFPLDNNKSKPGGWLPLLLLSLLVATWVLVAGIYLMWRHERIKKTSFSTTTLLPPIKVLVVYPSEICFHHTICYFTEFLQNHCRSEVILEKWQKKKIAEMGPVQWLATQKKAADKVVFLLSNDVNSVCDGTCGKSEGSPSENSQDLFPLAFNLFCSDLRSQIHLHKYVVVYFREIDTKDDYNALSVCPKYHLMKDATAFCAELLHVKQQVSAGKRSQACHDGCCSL

IL-17RB (1-288) = biological target: T2, IL-17RB (1-288) (human, UniProt Q9NRM6 18-288); assay: cryo-EM structure; IL-25 and IL-17RB co-expressed in Expi293F GnTI- cells and co-purified; 2:2 complex (3.18 Å) and higher-order 6:6 complex (4.39 Å) from one sample; HBS 20/150 pH 7.4; details: both partners purified
T2 construct: signal peptide in the construct; IL-17 receptor B (IL-17RB), human, amino acids 1-288; Two constructs are named (C-terminal 3C-proteinC-8xHis in pVLAD6; C-terminal Avitag-6xHis in pD649); also called IL-17 receptor B; apo-IL-17RB
T2 sequence (looked up): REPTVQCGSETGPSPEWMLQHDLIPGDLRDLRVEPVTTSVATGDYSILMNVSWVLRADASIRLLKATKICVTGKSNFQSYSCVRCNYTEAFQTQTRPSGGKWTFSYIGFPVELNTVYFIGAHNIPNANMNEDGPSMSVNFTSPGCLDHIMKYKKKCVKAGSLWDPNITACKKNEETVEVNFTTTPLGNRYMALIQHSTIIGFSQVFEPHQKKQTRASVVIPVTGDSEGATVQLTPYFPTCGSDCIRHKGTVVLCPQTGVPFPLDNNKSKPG

## IL-17RA (1-317) (from UniProt Q96F46 33-317) (receptor)
[1]
  Kd: 13.8 µM

B1: IL-25 Y92A (ligand)
chain: THTYSHWPSCCPSKGQDTSEELLRWSTVPVPPLEPARPNRHPESCRASEDGPLNSRAISPWRAELDRDLNRLPQDLYHARCLCPHCVSLQTGSHMDPRGNSELLYHNQTVFYRRPCHGEKGTHKGYCLERRLYRVSLACVCVRPRVMG
[2]
  NF-κB reporter (SEAP) HEK293 cells expressing IL-17RA, ACT1 and endogenous IL-17RB, varying concentrations of IL-25 mutant: EC50 shift relative to WT IL-25: > 3 log-fold

B2: IL-25 (amino acids 30-177) (ligand, human, UniProt Q9H293 30-177, looked up)
chain: B1 chain with A63Y
notes: IL-25 (IL-17E), human, amino acids 30-177; Two constructs are named (Igk signal peptide with C-terminal 3C-cleavable Avitag-6xHis in pEG BacMam; HA signal peptide with C-terminal Avitag-6xHis in a lentiviral vector); also called IL-17E; WT IL-25
IL-17RB (1-288)
  binding result: binds
